Columns and labels:
CFP-T7 = test: Surfactant resistance of amadoriase during addition of each stabilizer (CFP-T7); assay type: biochemical, genus Coniochaeta; conditions: Stabilizer None, 500 mM HEPES (pH 7.0), 0.01% CTAC
Protocol: In the above surfactant resistance measuring method, various stabilizers are added and the residual activity of an amadoriase is measured in order to evaluate the effect of the stabilizers. […] The concentration sufficient to provide a buffer capacity to a solution refers to the concentration at which pH is maintained within a predetermined range (for example pH5 to 10, pH6 to 8) without having pH change due to other reagents added to the solution. A concentration insufficient to provide a buffer capacity to a solution refers to the concentration at which pH changes by addition of other reagents to the solution and pH falls outside a particular range. These concentrations vary depending upon the type and amount of other reagents to be added to a solution; however, a person skilled in the art can appropriately determine the concentration by conventional methods. Other conditions and procedure can be the same as in the above surfactant resistance measuring method.
It was studied whether or not the addition of any of various stabilizers enhanced the surfactant resistance of an amadoriase. Phosphoric acid, a tricarboxylic acid (e.g., citric acid), a dicarboxylic acid (e.g., malic acid, maleic acid, citraconic acid, malonic acid, glutaric acid, or tartaric acid), a monpcarboxylic acid (e.g., acetic acid), MES, MOPS, MOPSO, or ammonium sulfate was used as a stabilizer. As a Comparative Example, CHES was used. To prevent change in pH when adding the stabilizer, 500 mM HEPES (pH 7.0) was used as a buffer solution; CFP-T7 purified as described above was used as a sample; the final concentration of CTAC was set at 0.01%; and any of the stabilizers was further added to evaluate the surfactant resistance of CFP-T7 according to the measurement method for surfactant resistance in Example 1. Using a 500 mM HEPES (pH 7.0) buffering agent and CFP-D2 purified as described above as a sample, any of the stabilizers was further added, and the surfactant resistance of CFP-D2 was evaluated according to the measurement method for surfactant resistance in Example 1 although under more harsh surfactant treatment conditions in which the final concentration of CTAC was set at 0.08% and the treatment temperature at 37° C.

[1] = Surfactant resistance (residual activity) of CFP-T7 single variants, 0.01% CTAC; assay type: biochemical; conditions: 30°C, 5 minutes, 30 mM MES/21 mM Tris buffer (pH6.5), crude enzyme
Protocol: Reagent 1 (2.7 ml), reagent 2 (100 μl) and reagent 3 (100 μl) were mixed and preheated at 37° C. for 5 minutes. Then, to the mixture, an enzyme solution (100 μl) was added and thoroughly mixed. Thereafter, the absorbance of the mixture at 555 nm is measured by a spectrophotometer (U-3010, manufactured by Hitachi High-Technologies). Measurement is performed at 555 nm from one minute to three minutes and an absorbance change per minute is specified as the measurement value. A control solution is prepared in the same manner as above except that ion-exchanged water (100 μl) is used in place of reagent 3 (100 μl).
An amadoriase crude enzyme solution or an amadoriase purified sample is diluted with a 30 mM MES/21 mM Tris buffer solution (pH6.5) so as to have a concentration of about 1.0 U/ml. To this, CTAC (for example, manufactured by Tokyo Kasei Kogyo Co., Ltd.) is added so as to obtain a final concentration 0.01% (w/v) or 0.04%. The resultant mixture is heated at 30° C. for 5 minutes. After heating, the mixture is diluted double with a 10 mM phosphate buffer (pH7.0) containing 0.15% BSA to prepare a sample. The enzyme activities of the sample before and after a surfactant treatment are measured by the method described in Section B above. […] In this manner, surfactant resistance is evaluated. […]

B1: CFP-T7: amadoriase derived from the genus Coniochaeta, SEQ ID NO: 1; triple variant with mutations at positions 272, 302 and 388 (protein, listed as Coniochaeta sp.)
chain: MTSNRADTRVIVVGGGGTIGSSTALHLVRSGYAPANITVLDTFEIPSAQSAGHDLNKIMGIRLRNKVDLQMSLEARQMWKEDELFQPFFHNTGRMDCEHTPEGIEDLKKQYQALHDAGAGLEKTHAWLDNEDEILSKMPLLQRDQIQGWKAIWSQDGGWLAAAKAINAIGQFLKERGVKFGFGGAGSFKQPLFDDEGTTCIGVETADGTKYYADKVVLAAGAWSPTLVDLEDQCCSKAWVYAHIQLTPEEAAEYKGVPVVYNGEFGFFFEPDEFGVIKVCDEFPGFSRFKEHQPYGAPSPKRISVPRSHAKHPTDTYPDASEVSIKKAIATFLPRFQDKELFNRALCWCTDTADAALLMCEHPKWKNFILATGDSGHSFKILPNVGKYVVELIEGRLPEEMAYQWRWRPGGDALKSRRAAPPKDLADMPGWKHDPKL
CFP-T7 Residual Activity (%) (CFP-T7; Table 9-1): 4.7% | CFP-T7 Residual Activity (%) (CFP-T7; Table 9-2): 3.1% | Residual Activity(%) [1]: 69.9%

Source: patent US11549134B2, “Modified amadoriase and method for producing the same, agent for improving surfactant resistance of amadoriase and composition for measuring HbA1c using the same” (Kikkoman Corporation, priority 2013, dated 2023)
